Source: the supplement of paper PMC9170038

What was measured:
MS2 coat protein [1] = assay: apparent KD of MS2 coat protein, switch ON state; designed switch direction (-1 OFF switch, 1 ON switch): -1; higher = weaker reporter binding; conditions: FMN input: 0 or 200 uM; Eterna round: R93 (includes R88 designs)
In short: (§1)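 Titration buffer: 100 mM Tris-HCl pH 7.5, 80 mM KCl, 4 mM MgCl2, without or with constant ligand. Designed RNA switches transcribed on-chip from Illumina sequencing clusters received SNAP-549-labelled MS2 coat protein in twofold steps from 0.7 or 1.5 nM to 3 µM. Apparent KD is the median per design of fits to normalised cluster binding curves.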

MS2 coat protein [2] = assay: apparent KD of MS2 coat protein, switch OFF state (with FMN for OFF switches, without FMN for ON switches); designed switch direction (-1 OFF switch, 1 ON switch): -1; higher = weaker reporter binding; conditions: FMN input: 0 or 200 uM; Eterna round: R93 (includes R88 designs)
In short: as §1

Row | Sequence | apparent KD of MS2 coat protein (MS2 coat protein [1]) [nM] | apparent KD of MS2 coat protein (MS2 coat protein [2]) [nM]
1 | AACAAACAUGAGGAUCACCCAUGUCAGGAUAUGCAUAAAUAAAUAAAUAAAUAAAUAAGCAGAAGGGACACAAC [Amethyst 90] | 45.1 | 53.3
2 | AACAAACAUGAGGAUCACCCAUGUGAGGAUAUCGGAUGUACAGCGCAAUUAGAAUUAACGAGAAGGCACACUUA [Ex1_Neo] | 22.7 | 22.6
3 | AACAAGGCAGGAUAUACAUGAGGAUCACCCAUGUGAGAAUUAAGUGGCGUAACACAAAGUAGAAGGGCCAUGGA [Ruby 5] | 39.5 | 49.9
4 | AACAAGUCAGGAUAUCCGAAAAGUAAAUAAGUAAAACAAAAGGAGAAGGGACAUGAGGAUCACCCAUGUAAAUA [JR_Exc004_Sub015] | 48.1 | 27.2
5 | AACAAGUGAGGAUAUCGGAAAUGUAAAUAAGUUUCACAAAACGAGAAGGCACAUGAGGAUCACCCAUGUAAAUA [JR_Exc004_Sub013] | 32.1 | 25.6
6 | AACAGAACAGGAUAUACAUGAGGAUCACCCAUGUCACAACAAAGCAGCGCAACACAAAGUAGAAGGGUUAUGGA [Ruby 14] | 31.8 | 40.9
7 | AACAGGACAGGAUAUACAUGAGGAUCACCCAUGUGAGAAUUAAGUGGCGUACCACAAAGUAGAAGGGUCCUGGA [Mat - Exclusion 3 - JL mod - D40] | 44.5 | 216
8 | AACAGGUCAGGAUAUGUGGAAAAAAUAAAAAAAAUAAAAACACAGAAGGGACAUGAGGAUCACCCAUGUAUAUA [May 21] | 89.4 | 53.4
9 | AACAGUACAGGAUAUACAUGAGGAUCACCCAUGUAAAAAUAAAAGGGCGUACCACAAAGUAGAAGGGUACUGGA [Moding Maslow revisited (73) 12] | 44.7 | 34
10 | AACAGUACAGGAUAUACAUGAGGAUCACCCAUGUAAAAUAAAUAAAAAUAAAAGGGAAGUAGAAGGGUACUGGA [Moding Maslow revisited (73) 17] | 31.6 | 46.5
11 | AACAGUACAGGAUAUACAUGAGGAUCACCCAUGUCAGAAUUAAGCAGCGUAACACAAAGUAGAAGGGUAAUGGA [Ruby 18] | 46 | 41.1
12 | AACAGUACAGGAUAUACAUGAGGAUCACCCAUGUGAGAAUUAAGUGGAGGACCACAAAGUAGAAGGGUACUGAA [Mat - Exclusion 3 - JL mod - D9] | 56.9 | 109
13 | AACAGUACAGGAUAUACAUGAGGAUCACCCAUGUGAGAAUUAAGUGGCGUACCACAAAGUAGAAGGGUACUGGA [JL Maslow Revisted mod 16] | 35 | 173
14 | AACAGUACAGGAUAUACAUGAGGAUCACCCAUGUGAGAAUUAAGUGGCGUACCACAAAGUAGAAGGGUACUGGA [Maslow Revisited] | 35 | 173
15 | AACAGUACAGGAUAUACAUGAGGAUCACCCAUGUGGGAAUUAAGUGGCGUACCACAAUGUAGAAGGGUACUGGA [JL In the Red] | 129 | 228
16 | AACAGUACAGGAUAUACAUGAGGAUCACCCAUGUGGGUAAAAAGAUCGAGAGAUCAAUGUAGAAGGGUACUGGA [JL In the Red 04] | 259 | 104
17 | AACAUACAUGAGGAUCACCCAUGUCAGGAUAUGCCGGGUUAGAAAAAAAAAAAAAAACGUAGAAGGGACAAAAA [Bilbo Confounded 3 - Jieux - Exclusion 1] | 62.4 | 62.2
18 | AACAUGUAAGGAUAUUGAAGAAAAGAAAAGAAAGAAAAGAACAAGAAGGUACAUGAGGAUCACCCAUGUAAGAA [EteRNA is fun!] | 33.7 | 18.6
19 | AACAUGUCAGGAUAUAAAAGAAAAGAAAAGAAAGAAAAGAAUUAGAAGGGACAUGAGGAUCACCCAUGUAAGAA [EteRNA is fun!] | 33 | 28.9
20 | AACUGACAUGAGGAUCACCCAUGUCAGGAUAUGACAUCGAAAAAUAAAUAAAUCGUUGUCAGAAGGGACAUGGA [Design 74: Sub-opt RB] | 25.1 | 38
21 | AACUGACAUGAGGAUCACCCAUGUCAGGAUAUGCUUAAUAAAAAAAAAAAAAAAUGAUGCAGAAGGGAUAUGGG [Amethyst 56] | 23.7 | 18.9
22 | AACUGACAUGAGGAUCACCCAUGUCAGGAUAUGCUUCAUAAAAAAAAAAAAAAAUGAUGCAGAAGGGACAUGAA [Design 25 :P Sub-opt 1] | 13 | 14.1
23 | AACUGUACAGGAUAUACAUGAGGAUCACCCAUGUGAGAAUUAAGUGGAAAACCACAAAGUAGAAGGGUACAGGA [Mat - Exclusion 3 - JL mod - D18] | 27.6 | 136

Row | Sequence | apparent KD of MS2 coat protein (MS2 coat protein [1]) [nM] | apparent KD of MS2 coat protein (MS2 coat protein [2]) [nM]
24 | AACUGUACAGGAUAUACAUGAGGAUCACCCAUGUGAGAAUUAAGUGGAGAACCACAAAGUAGAAGGGUACAGGA [Mat - Exclusion 3 - JL mod - D17] | 45.7 | 218
25 | AAGAAACAUGAGGAUCACCCAUGUCAGGAUAUCGAAGAAAGAAAGAAAGAAAGAAGAACGAGAAGGGACAAAGG [Gaius Iulius Aquila] | 44.4 | 60.4
26 | AAGAAACGAGGAUAUACAUGAGGAUCACCCAUGUAAAAGAAAGAAAAGGGAAAGAAAAGUAGAAGGCGUAAGAA [Usermaatre-sekheperenre Ramesses V] | 30.4 | 37
27 | AAGAACAAAGGAUAUACAAGGAAGAAAGAAAAGAAAAGAAAACAUGAGGAUCACCCAUGUAGAAGGUUGUAGAA [EteRNA is fun!] | 24.7 | 20.7
28 | AAGAACACAGGAUAUACAUGAGGAUCACCCAUGUAAAAGAAAGAAGGGAAAGAGAAAAGUAGAAGGGUGAAGAA [Ker] | 33.1 | 36.6
29 | AAGAACAGAGGAUAUACAAAAUAAAAGAAAAGAAAGAAAGAACAUGAGGAUCACCCAUGUAGAAGGCUGAAGAA [Sonbef] | 28.2 | 24.1
30 | AAGAACAGAGGAUAUACAUGAGGAUCACCCAUGUAAAAGAAAGAGGGAAAAGAGAAAAGUAGAAGGCUGAAGAA [Arsinoe III] | 26.9 | 31
31 | AAGAACCGAGGAUAUACAUGAGGAUCACCCAUGUAAAAGAAAGAGGGAAAAGAGAAAAGUAGAAGGCGGAAGAA [Berenice I] | 26.2 | 57.4
32 | AAGAACGGAGGAUAUACAUGAGGAUCACCCAUGUAAAAGAAAGAAAAGGGAAAGAAAAGUAGAAGGCCGAAGAA [Djeserkare Amenhotep I] | 39.8 | 51.3
33 | AAGAAGAGAGGAUAUACAAAAUAAAAGAAAAGAAAGAAAGAACAUGAGGAUCACCCAUGUAGAAGGCUCAAGAA [Hotepibre Qemau Siharnedjheritef] | 25.6 | 28.4
34 | AAGAAGGUAGGAUAUACUAGGGCAACUAAUGCAAAGAUAAAACAUGAGGAUCACCCAUGUAGAAGGGCCAGAAA [JR_Exc002_Sub401] | 33.8 | 35.4
35 | AAGAAGUAAGGAUAUCGUGCUCGUCACAAAAGUGAUGAGUACGAGAAGGUACAUGAGGAUCACCCAUGUAAAGA [Opal 35] | 24.6 | 21.9
36 | AAGAAGUAAGGAUAUGCUGCUCGUCACAAAAGUGAUGAGUAGCAGAAGGUACAUGAGGAUCACCCAUGUUAAGA [JL eternac mod 4] | 24.4 | 20.6
37 | AAGAAGUCAGGAUAUCGAAAAGAAAAGAAAAGAAAAGAAAACGAGAAGGGACAUGAGGAUCACCCAUGUAAGAA [Smerdis] | 46.5 | 25.7
38 | AAGAAGUCAGGAUAUGCUGCUCGUCACUUGCGUGAUGAGUAGCAGAAGGGACAUGAGGAUCACCCAUGUAAAGA [Exclusion4-cac2] | 50.7 | 65.6
39 | AAGAAGUCAGGAUAUGCUGCUCGUCACUUGCGUGAUGAGUAGCAGAAGGGACAUGAGGAUCACCCAUGUAAAGA [Opal 14] | 50.7 | 65.6
40 | AAGAAGUGAGGAUAUCGAAGACUGUCGAAAAGACAGUCGAACGAGAAGGCACAUGAGGAUCACCCAUGUGAGGG [Marsurpial 65% 3] | 130 | 69.9
41 | AAGAAGUGAGGAUAUCGUUGUCGUCACAAAAGUGAUGACGACGAGAAGGCACAUGAGGAUCACCCAUGUAAAGA [Opal 28] | 37.8 | 43
42 | AAGAAGUGAGGAUAUGUCUGUGCGAAAAAAAAAAAGUGCAGACAGAAGGCACAUGAGGAUCACCCAUGUAAAAA [Florian 65% 2] | 37.5 | 48.1
43 | AAGAAUCGAGGAUAUACAUGAGGAUCACCCAUGUAAAAGAAAGAAGGGAAAGAGAAAAGUAGAAGGCGAAAGAA [Menkheperre Nekau I] | 22.6 | 27.7
44 | AAGAAUGGAGGAUAUACAAAAUAAAAGAAAAGAAAGAAAGAACAUGAGGAUCACCCAUGUAGAAGGCCAAAGAA [Khasekhemre Neferhotep I] | 33.6 | 24.7
45 | AAGAGUAGAGGAUAUACAUGAAAAGAGUCGAAAGACUCAAAACAUGAGGAUCACCCAUGUAGAAGGCUACUCAA [Hyphema Seclusion Mod 62% 3] | 137 | 81.4
